The text below walks through data of patent publication US20170240645A1 (Genentech, published 2017).

For assay [1], the target named is T1, human PMEL17 (human, UniProt P40967 25-661).
T1 construct: Untagged PMEL17 as it occurs on melanoma cell lines, normal human melanocytes, PC3 cells stably expressing PMEL17 cDNA, and in human tissue sections; also called Melanocyte protein PMEL17
T1 sequence: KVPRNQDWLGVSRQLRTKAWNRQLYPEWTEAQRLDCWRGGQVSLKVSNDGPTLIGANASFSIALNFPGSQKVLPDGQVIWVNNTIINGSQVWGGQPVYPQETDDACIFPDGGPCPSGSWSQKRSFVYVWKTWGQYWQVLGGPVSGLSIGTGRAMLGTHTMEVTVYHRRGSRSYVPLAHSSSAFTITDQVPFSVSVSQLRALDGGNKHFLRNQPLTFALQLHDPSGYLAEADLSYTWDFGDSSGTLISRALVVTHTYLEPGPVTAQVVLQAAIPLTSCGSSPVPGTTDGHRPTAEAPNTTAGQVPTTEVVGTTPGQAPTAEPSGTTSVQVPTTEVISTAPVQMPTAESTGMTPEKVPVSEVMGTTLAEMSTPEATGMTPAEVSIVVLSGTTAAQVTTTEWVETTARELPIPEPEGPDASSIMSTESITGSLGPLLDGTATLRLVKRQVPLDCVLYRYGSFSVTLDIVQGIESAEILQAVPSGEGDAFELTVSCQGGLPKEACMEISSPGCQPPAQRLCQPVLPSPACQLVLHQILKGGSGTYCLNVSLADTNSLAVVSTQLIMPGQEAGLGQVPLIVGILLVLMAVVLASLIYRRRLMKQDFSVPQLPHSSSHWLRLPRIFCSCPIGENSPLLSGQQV
Nature of the assay: flow cytometry on parental and in vivo-derived resistant UACC-257X2.2 melanoma cells, detected with anti-human Alexa 488 conjugate; control peak is secondary antibody only. How it is done: Expression of ETBR and PMEL17 on the surface of the in vivo- and in vitro-derived resistant UACC-257X2.2 cells and the parental UACC-257X2.2 cells was then determined by FACS. Cells were stained with anti-ETBR antibody (hu5E9.v1 or ch5E9) or with anti-PMEL17 antibody (ch17A9), followed by an anti-human Alexa 488 antibody conjugate. […] Surface expression of PMEL17 was unchanged in the resistant cells as compared to the parental cells.
For orientation: Flow cytometry measures light scatter and fluorescence of single cells or particles in a stream.

Assay [2] concerns the target T1, human PMEL17. Nature of the assay: FACS screen of hybridoma clones.
Assay [3] deals with T2, endothelin B receptor (ETBR) (UniProt P24530 27-442, limits assumed).
T2 sequence (looked up): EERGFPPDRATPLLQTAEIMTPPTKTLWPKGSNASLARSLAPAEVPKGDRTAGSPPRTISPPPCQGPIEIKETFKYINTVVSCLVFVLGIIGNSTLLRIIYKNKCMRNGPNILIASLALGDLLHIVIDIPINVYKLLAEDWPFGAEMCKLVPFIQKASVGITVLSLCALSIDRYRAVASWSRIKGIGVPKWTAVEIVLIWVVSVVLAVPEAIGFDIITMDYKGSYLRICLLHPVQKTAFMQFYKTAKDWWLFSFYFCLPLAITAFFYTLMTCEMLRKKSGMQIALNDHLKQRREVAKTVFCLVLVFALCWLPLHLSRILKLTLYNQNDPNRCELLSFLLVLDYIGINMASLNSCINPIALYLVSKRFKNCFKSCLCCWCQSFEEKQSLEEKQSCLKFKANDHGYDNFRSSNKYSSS
Nature of the assay: cell-based or functional assay.

Positions count from the first letter of the chain named.

B1: ch17A9 (antibody, human IgG1, kappa, V domains shown)
VH: EVQLQQSGPELVKPGASMKISCKSSGYSFTRYTMNWVKQSHGKNLEWIGVINPYNGGTVYNQKFKGKATLTVDKSSSTAYMELLSLTSEDSAVYYCARTDYDGYAMDYWGQGTSVTVSS
VL: DVQITQSPSYLAASPGETITINCRATKSISKYLAWYQEQPGKTNNLLIYSGSTLQSGIPSRFSGSGSGTDFTLTISSLEPEDFAMYYCQQHNEYPYTFGSGTKLEIKR
notes: also called chimeric 17A9
Take B1: the binding result in the assay with human PMEL17 [1] was “binds”.

B2: 8G3 (antibody, V domains shown)
VH: B1 VH with K19R, S24A, R31G, I51Y, A79T, Y101S, D102G, Y108C
VL: DVQITQSPSYLDASPGETITINCRASKTISKYLAWYQEKPGKTNKLLIYSGSTLQSGIPSRFSGSGSGTDFTLTISSLEPEDFAMYYCQQHNEYPYTFGSGTKLEIK
notes: Mouse monoclonal antibody from a hybridoma
On to B2, for which, in the assay with human PMEL17 [2], the binding result is “binds”.

B3: anti-ETBR-PNU (ch5E9 conjugated to MC-PNU-159682 through a non-cleavable linker) (antibody, human IgG1, kappa, V domains shown)
VH: QVQLLQSGAELARPGASVKLSCKASGYTFTSYWMQWVKQRPGQGLEWIGTIYPGDGDTSYAQKFKGKATLTTDKYSSTAYMQLSSLASEDSAVYYCARWGYAYDIDNWGQGTLVTVSS
VL: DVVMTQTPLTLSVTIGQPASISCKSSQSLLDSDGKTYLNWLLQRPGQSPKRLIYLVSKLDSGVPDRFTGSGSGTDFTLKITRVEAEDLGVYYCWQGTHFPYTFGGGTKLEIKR
modifications: MC-PNU-159682 on reduced cysteine residues of the antibody
On to B3, for which, in assay [3], the “EC50 of cell survival (CellTiter-Glo), in vitro derived resistant UACC-257X2.2 cells” value came out at 0.0146 µg/mL; the “EC50 of cell survival (CellTiter-Glo), in vivo derived resistant UACC-257X2.2 cells” value was 0.0143 µg/mL; the “EC50 of cell survival (CellTiter-Glo), parental UACC-257X2.2 cells” value stood at 0.0042 µg/mL.

B4: 15F2 (antibody, V domains shown)
VH: QVQLKESGPGLVAPSQSLSITCTVSGFSLTKYGVHWVRQPPGKGLEWLGVIWAGGNTNYNSALMSRLSINKDNSKSQVFLKMNSLQTDDTAMYYCATFDVWGAGTTVTVSS
VL: DIVMTQAAPSVPVTPGESVSISCRSSKSLLHSNGNTFLYWFLQRPGQSPQLLIYRMSNLVSGVPDRFSGSGSGTAFTLRISRVEAEDVGFYYCMQHLEYPYTFGGGTKLELK
notes: as for B2
As for B4, the binding result with human PMEL17 [2] is “binds”.
